Results on four molecules are retold here after doi:10.64898/2025.12.22.695686.

Experiment [1] addresses Sgs3-MD (Sgs3 mucin domain repeat peptide) (Drosophila melanogaster).
Experiment [2] concerns the target Sgs1-MD (Sgs1 mucin domain repeat peptide) (Drosophila melanogaster).

B1: PGANT5B^K419D (amino acids 77–626) (enzyme)
chain: NEINTEKSLDGESGGALIMGQGFASGGISMTYPSVVLKKWFLAPSVQEAKGKPGEMGKPVKIPADMKDLMKEKFKENQFNLLASDMISLNRSLTDVRHEGCRRKHYASKLPTTSIVIVFHNEAWTTLLRTVWSVINRSPRALLKEIILVDDASERDFLGKQLEEYVAKLPVKTFVLRTEKRSGLIRARLLGAEHVSGEVITFLDAHCECTEGWLEPLLARIVQNRRTVVCPIIDVISDETFEYITASDSTWGGFNWKLNFRWYRVPSREMARRNNDRTAPLRTPTMAGGLFSIDKDYFYEIGSYDEGMDIWGGENLEMSFRVWMCGGVLEIAPCSRVGHVFRDSTPYTFPGGTTEIVNHNNARLVEVWLDDWKEFYYSFYPGARKASAGDVSDRKALRDRLKCKSFRWYLENVYPESLMPLDYYYLGEIRNAETETCLDTMGRKYNEKVGISYCHGLGGNQVFAYTKRQQIMSDDLCLDASSSNGPVNMVRCHNMGGNQEWVYDAEEKWIRHTNTGQCLQRATRDDANTPLLRPCSYGKGQQWLMESKFK
Turning to B1, the KM for the acceptor peptide Sgs3-MD, Michaelis-Menten kinetics of O-glycosylation (UDP-Glo assay), fold against the corresponding Sgs1-MD parameter in experiment [1] turned out to be 10 fold lower. Moreover, the KM for the acceptor peptide Sgs1-MD, Michaelis-Menten kinetics of O-glycosylation (UDP-Glo assay), fold against PGANT5B^WT (fold decrease) in experiment [2] stood at 2.

B2: PGANT5B^WT (amino acids 77–626) (enzyme)
chain: NEINTEKSLDGESGGALIMGQGFASGGISMTYPSVVLKKWFLAPSVQEAKGKPGEMGKPVKIPADMKDLMKEKFKENQFNLLASDMISLNRSLTDVRHEGCRRKHYASKLPTTSIVIVFHNEAWTTLLRTVWSVINRSPRALLKEIILVDDASERDFLGKQLEEYVAKLPVKTFVLRTEKRSGLIRARLLGAEHVSGEVITFLDAHCECTEGWLEPLLARIVQNRRTVVCPIIDVISDETFEYITASDSTWGGFNWKLNFRWYRVPSREMARRNNDRTAPLRTPTMAGGLFSIDKDYFYEIGSYDEGMDIWGGENLEMSFRVWMCGGVLEIAPCSRVGHVFRKSTPYTFPGGTTEIVNHNNARLVEVWLDDWKEFYYSFYPGARKASAGDVSDRKALRDRLKCKSFRWYLENVYPESLMPLDYYYLGEIRNAETETCLDTMGRKYNEKVGISYCHGLGGNQVFAYTKRQQIMSDDLCLDASSSNGPVNMVRCHNMGGNQEWVYDAEEKWIRHTNTGQCLQRATRDDANTPLLRPCSYGKGQQWLMESKFK
Take B2: the KM for the acceptor peptide Sgs3-MD, Michaelis-Menten kinetics of O-glycosylation (UDP-Glo assay), fold against the corresponding Sgs1-MD parameter in experiment [1] amounted to 10 fold lower.

B3: PGANT5A^WT (amino acids 77–626) (enzyme)
chain: NEINTEKSLDGESGGALIMGQGFASGGISMTYPSVVLKKWFLAPSVQEAKGKPGEMGKPVKIPADMKDLMKEKFKENQFNLLASDMISLNRSLTDVRHEGCRRKHYASKLPTTSIVIVFHNEAWTTLLRTVWSVINRSPRALLKEIILVDDASERDFLGKQLEEYVAKLPVKTFVLRTEKRSGLIRARLLGAEHVSGEVITFLDAHCECTEGWLEPLLARIVQNRRTVVCPIIDVISDETFEYITASDSTWGGFNWKLNFRWYRVPSREMARRNNDRTAPLRTPTMAGGLFSIDKDYFYEIGSYDEGMDIWGGENLEMSFRIWQCGGILEIIPCSHVGHVFRDKSPYTFPGGVAKIVLHNAARVAEVWLDEWRDFYYSMSTGARKASAGDVSDRKALRDRLKCKSFRWYLENVYPESLMPLDYYYLGEIRNAETETCLDTMGRKYNEKVGISYCHGLGGNQVFAYTKRQQIMSDDLCLDASSSNGPVNMVRCHNMGGNQEWVYDAEEKWIRHTNTGQCLQRATRDDANTPLLRPCSYGKGQQWLMESKFK
As for B3, the KM for the acceptor peptide Sgs3-MD, Michaelis-Menten kinetics of O-glycosylation (UDP-Glo assay), fold against the corresponding Sgs1-MD parameter in experiment [1] turned out to be 10 fold lower. Also, in experiment [2], the KM for the acceptor peptide Sgs1-MD, Michaelis-Menten kinetics of O-glycosylation (UDP-Glo assay), fold against PGANT5B^WT came out at 0.7 fold lower.

B4: PGANT5A^D419K (amino acids 77–626) (enzyme)
chain: NEINTEKSLDGESGGALIMGQGFASGGISMTYPSVVLKKWFLAPSVQEAKGKPGEMGKPVKIPADMKDLMKEKFKENQFNLLASDMISLNRSLTDVRHEGCRRKHYASKLPTTSIVIVFHNEAWTTLLRTVWSVINRSPRALLKEIILVDDASERDFLGKQLEEYVAKLPVKTFVLRTEKRSGLIRARLLGAEHVSGEVITFLDAHCECTEGWLEPLLARIVQNRRTVVCPIIDVISDETFEYITASDSTWGGFNWKLNFRWYRVPSREMARRNNDRTAPLRTPTMAGGLFSIDKDYFYEIGSYDEGMDIWGGENLEMSFRIWQCGGILEIIPCSHVGHVFRKKSPYTFPGGVAKIVLHNAARVAEVWLDEWRDFYYSMSTGARKASAGDVSDRKALRDRLKCKSFRWYLENVYPESLMPLDYYYLGEIRNAETETCLDTMGRKYNEKVGISYCHGLGGNQVFAYTKRQQIMSDDLCLDASSSNGPVNMVRCHNMGGNQEWVYDAEEKWIRHTNTGQCLQRATRDDANTPLLRPCSYGKGQQWLMESKFK
B4: the KM for the acceptor peptide Sgs3-MD, Michaelis-Menten kinetics of O-glycosylation (UDP-Glo assay), fold against the corresponding Sgs1-MD parameter in experiment [1] is 10 fold lower. In addition, in experiment [2], the KM for the acceptor peptide Sgs1-MD, Michaelis-Menten kinetics of O-glycosylation (UDP-Glo assay), fold against PGANT5A^WT worked out at 0.6 fold higher.
